{"source": "paper PMC6504816", "data": [{"target": "T1, YlxR (Bacillus subtilis) (UniProt P32728)", "T1 sequence": "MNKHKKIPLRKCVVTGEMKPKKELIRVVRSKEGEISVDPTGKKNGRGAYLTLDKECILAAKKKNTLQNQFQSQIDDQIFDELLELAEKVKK", "assay": "EMSA", "details": "10 mM Tris-HCl pH 8.0, 100 mM KCl, 10 mM MgCl2, 1 mM DTT, 1 mM EDTA, 1 ug poly(dI-dC), 20 fmol probe in 20 ul, 15 min at 25 C; 6% native PAGE", "values": [{"sequence": "GGATATTCCAGCAAAATTCGATAAACTAGGAAGAGCACAAATAGGCATAAGCAGGGTTGAAAGGAGGTTTTGGTTC (double strand) [PthiL [-76/-1] Wt]", "binding": "binds"}, {"sequence": "GGATATTCCATACCAATTCGATAAACTAGGAAGAGCACAAATAGGCATAAGCAGGGTTGAAAGGAGGTTTTGGTTC (double strand) [PthiL [-76/-1] M1]", "binding": "binds more weakly"}, {"sequence": "CTGGATGATATGGCAGAGTGGGTGTACCAAATTAAATAAAAGAACTATTTTTCTCTTTATACATTCACAGGCCGCCGAGATGTTCTCGACAGCCTTTTATTTTTGACTGCTGCGTGCAGACCCGCATCAAAAGAAATAATTTCAAAATCATTTGCTTCAG (double strand) [PtrmK [-295/-135] M1]", "binding": "binds"}, {"sequence": "CTGGATGATATGGCAGAGTGGGTGTCAAAAATTAAATAAAAGAACTATTTTTCTCTTTATACATTCACAGGCCGCCGAGATGTTCTCGACAGCCTTTTATTTTTGACTGCTGCGTGCAGACCCGCATCAAAAGAAATAATTTCAAAATCATTTGCTTCAG (double strand) [PtrmK [-295/-135] Wt]", "binding": "binds"}]}]}
